Measurements as given in paper PMC11284795.

Columns and labels:
[1] = biological target: human beta-klotho (KLB) on HEK293 cells (human) (UniProt Q86Z14)
[2] = biological target: human serum albumin (HSA) (human) (UniProt P02768)
[3] = biological target: human beta-klotho (KLB) on HEK293 cells (human) (UniProt Q86Z14); remark: listed apart in the source
[4] = biological target: FGFR4/KLB: ectodomain of human FGFR4 fused to Fc, with human beta-klotho (human) (UniProt P22455)

FGF21 analog 22: Ala[Gln121, Leu168, Cys180]FGF21 with a C16 fatty diacid side chain on 180C, sequence (Q9NSA1 other isoform, or with tags, fused parts or gaps): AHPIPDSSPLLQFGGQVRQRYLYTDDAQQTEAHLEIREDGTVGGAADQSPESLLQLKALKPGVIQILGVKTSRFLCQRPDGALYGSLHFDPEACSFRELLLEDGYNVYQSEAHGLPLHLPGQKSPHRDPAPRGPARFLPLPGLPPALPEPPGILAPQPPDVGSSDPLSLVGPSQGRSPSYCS
FGF21 analog 5 (-1A, 71C, 121Q, 168L; C18 fatty diacid on 71C), sequence (Q9NSA1 other isoform, or with tags, fused parts or gaps): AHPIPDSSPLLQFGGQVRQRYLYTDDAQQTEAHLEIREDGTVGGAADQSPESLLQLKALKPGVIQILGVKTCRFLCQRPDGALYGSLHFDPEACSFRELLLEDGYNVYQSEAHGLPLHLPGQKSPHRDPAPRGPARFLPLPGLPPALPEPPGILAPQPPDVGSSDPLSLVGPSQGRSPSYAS
FGF21 analog 19 (-1A, 121Q, 168L, 181C; cysteamine on 181C), sequence (Q9NSA1 other isoform, or with tags, fused parts or gaps): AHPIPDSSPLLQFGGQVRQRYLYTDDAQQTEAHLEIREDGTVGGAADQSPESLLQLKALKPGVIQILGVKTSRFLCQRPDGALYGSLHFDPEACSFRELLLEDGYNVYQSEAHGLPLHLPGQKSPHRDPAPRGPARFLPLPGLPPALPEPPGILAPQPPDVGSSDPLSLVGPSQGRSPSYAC
FGF21 analog 10 (-1A, 121Q, 168L, 174C; C18 fatty diacid on 174C), sequence (Q9NSA1 other isoform, or with tags, fused parts or gaps): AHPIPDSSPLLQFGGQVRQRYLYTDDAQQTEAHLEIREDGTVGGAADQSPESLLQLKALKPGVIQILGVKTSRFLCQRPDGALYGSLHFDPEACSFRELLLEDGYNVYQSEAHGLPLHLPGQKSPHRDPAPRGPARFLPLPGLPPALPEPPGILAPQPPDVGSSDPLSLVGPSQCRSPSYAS
FGF21 analog 7 (-1A, 121Q, 168L, 170C; cysteamine on 170C), sequence (Q9NSA1 other isoform, or with tags, fused parts or gaps): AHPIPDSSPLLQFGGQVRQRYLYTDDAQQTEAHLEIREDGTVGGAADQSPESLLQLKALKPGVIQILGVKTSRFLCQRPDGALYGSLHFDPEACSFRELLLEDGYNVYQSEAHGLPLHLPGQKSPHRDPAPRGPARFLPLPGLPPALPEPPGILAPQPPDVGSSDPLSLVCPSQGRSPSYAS
FGF21 analog 6 (-1A, 121Q, 167C, 168L; cysteamine on 167C), sequence (Q9NSA1 other isoform, or with tags, fused parts or gaps): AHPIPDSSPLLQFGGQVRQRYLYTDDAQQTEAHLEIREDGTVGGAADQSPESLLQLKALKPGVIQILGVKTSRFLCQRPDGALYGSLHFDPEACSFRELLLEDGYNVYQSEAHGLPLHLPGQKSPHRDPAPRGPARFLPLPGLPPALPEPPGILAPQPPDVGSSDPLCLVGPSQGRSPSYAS
FGF21 (0), sequence (Q9NSA1 29-209): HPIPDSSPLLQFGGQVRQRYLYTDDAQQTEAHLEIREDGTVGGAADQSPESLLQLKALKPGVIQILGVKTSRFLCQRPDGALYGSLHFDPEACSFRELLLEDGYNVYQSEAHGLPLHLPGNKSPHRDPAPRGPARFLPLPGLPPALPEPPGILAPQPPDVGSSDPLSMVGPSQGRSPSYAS
FGF21 analog 2 (-1A), sequence (Q9NSA1 28-209): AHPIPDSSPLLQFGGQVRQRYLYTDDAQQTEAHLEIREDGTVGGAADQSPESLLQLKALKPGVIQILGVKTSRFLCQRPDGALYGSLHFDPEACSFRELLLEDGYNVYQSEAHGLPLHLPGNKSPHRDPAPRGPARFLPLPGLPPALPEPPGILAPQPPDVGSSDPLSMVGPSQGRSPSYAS
FGF21 analog 12 (-1A, 121Q, 168L, 176C; cysteamine on 176C), sequence (Q9NSA1 other isoform, or with tags, fused parts or gaps): as the sequence (Q9NSA1 28-209) above, with N122Q, M169L, S177C counted along it
FGF21 analog 13 (-1A, 121Q, 168L, 178C; cysteamine on 178C), sequence (Q9NSA1 other isoform, or with tags, fused parts or gaps): as the sequence (Q9NSA1 28-209) above, with N122Q, M169L, S179C counted along it
Met-FGF19 (25), sequence (O95750 other isoform, or with tags, fused parts or gaps): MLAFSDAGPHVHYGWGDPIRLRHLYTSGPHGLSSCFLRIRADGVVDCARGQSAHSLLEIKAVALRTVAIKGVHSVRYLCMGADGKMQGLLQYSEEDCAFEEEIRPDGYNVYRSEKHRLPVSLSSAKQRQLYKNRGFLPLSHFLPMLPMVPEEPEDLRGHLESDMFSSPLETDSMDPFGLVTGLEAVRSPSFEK
FGF21 analog 14 (-1A, 121Q, 168L, 179C; cysteamine on 179C), sequence (Q9NSA1 other isoform, or with tags, fused parts or gaps): as the sequence (Q9NSA1 28-209) above, with N122Q, M169L, Y180C counted along it
FGF21 analog 9 (-1A, 121Q, 168L, 172C; cysteamine on 172C), sequence (Q9NSA1 other isoform, or with tags, fused parts or gaps): as the sequence (Q9NSA1 28-209) above, with N122Q, M169L, S173C counted along it
FGF21 analog 8 (-1A, 121Q, 168L, 171C; cysteamine on 171C), sequence (Q9NSA1 other isoform, or with tags, fused parts or gaps): as the sequence (Q9NSA1 28-209) above, with N122Q, M169L, P172C counted along it
FGF21 analog 3 (-1A, 121Q), sequence (Q9NSA1 28-209 N149Q): as the sequence (Q9NSA1 28-209) above, with N122Q counted along it

Row | potency (EC50) of ERK phosphorylation in HEK293 cells transfected with human KLB, without HSA [1] [nM] | Substance | other results
1 | 67 | FGF21 analog 14 (-1A, 121Q, 168L, 179C; cysteamine on 179C) (from UniProt Q9NSA1 29-209) (ligand) | –
2 | 160 | FGF21 analog 12 (-1A, 121Q, 168L, 176C; cysteamine on 176C) (from UniProt Q9NSA1 29-209) (ligand) | –
3 | 1.3 | FGF21 analog 2 (-1A) (from UniProt Q9NSA1 29-209) (ligand) | –
4 | 1 | FGF21 (0) (from UniProt Q9NSA1 29-209) (ligand) | –
5 | 1.4 | FGF21 analog 6 (-1A, 121Q, 167C, 168L; cysteamine on 167C) (from UniProt Q9NSA1 29-209) (ligand) | –
6 | 3.3 | FGF21 analog 9 (-1A, 121Q, 168L, 172C; cysteamine on 172C) (from UniProt Q9NSA1 29-209) (ligand) | –
7 | 1 | FGF21 analog 3 (-1A, 121Q) (from UniProt Q9NSA1 29-209) (ligand) | –

More lines, now with the values behind:

Row | Substance | potency (EC50) of ERK phosphorylation in HEK293 cells transfected with human KLB, without HSA [1] [nM] | other results
8 | FGF21 analog 20 (-1A, 121Q, 168L, 180C; C12 fatty diacid on 180C) (from UniProt Q9NSA1 29-209) (ligand) | – | potency (EC50) of ERK phosphorylation in HEK293/human KLB cells with 0.1 and 1.0% HSA: 3.7 and 5.2 nM (5.8 nM without HSA); no HSA-dependent reduction of potency [2]: 5.2 nM; potency (EC50) of ERK phosphorylation in HEK293 cells transfected with human KLB, 0% HSA [3]: 5.8 nM
9 | FGF21 analog 13 (-1A, 121Q, 168L, 178C; cysteamine on 178C) (from UniProt Q9NSA1 29-209) (ligand) | 90 | –
10 | cysteamine protected Ala[Gln121, Leu168, Cys180]FGF21 (16) (from UniProt Q9NSA1 29-209) (ligand) | – | potency (EC50) of ERK phosphorylation in HEK293 cells transfected with human KLB, without HSA (with 0.1 and 1.0% HSA: 1.8 and 2.1 nM, Table 3) [1]: 2.5 nM
11 | FGF21 analog 10 (-1A, 121Q, 168L, 174C; C18 fatty diacid on 174C) (from UniProt Q9NSA1 29-209) (ligand) | 1.5 | –
12 | FGF21 analog 22: Ala[Gln121, Leu168, Cys180]FGF21 with a C16 fatty diacid side chain on 180C (from UniProt Q9NSA1 29-209) (ligand) | – | potency (EC50) of ERK phosphorylation in HEK293/human KLB cells with 0.1, 1.0 and 1.5% HSA: 4.2, 52 and 92 nM (3.5 nM without HSA) [2]: 92 nM; potency (EC50) of ERK phosphorylation in HEK293 cells transfected with human KLB, 0% HSA [3]: 3.5 nM
13 | FGF21 analog 11 (-1A, 121Q, 168L, 174C; cysteamine on 174C) (from UniProt Q9NSA1 29-209) (ligand) | 6.1 | –
14 | FGF21 analog 5 (-1A, 71C, 121Q, 168L; C18 fatty diacid on 71C) (from UniProt Q9NSA1 29-209) (ligand) | 4.8 | –
15 | Met-FGF19 (25) (from UniProt O95750 25-216) (ligand) | – | potency EC50 of ERK phosphorylation in Ba/F3 cells overexpressing human KLB and FGFR4 (chimera with the kinase domain of FGFR1c), 0% HSA [4]: 2.3 nM
16 | FGF21 analog 19 (-1A, 121Q, 168L, 181C; cysteamine on 181C) (from UniProt Q9NSA1 29-209) (ligand) | 24 | –
17 | FGF21 analog 7 (-1A, 121Q, 168L, 170C; cysteamine on 170C) (from UniProt Q9NSA1 29-209) (ligand) | 3.4 | –
18 | FGF21 analog 21 (-1A, 121Q, 168L, 180C; C14 fatty diacid on 180C) (from UniProt Q9NSA1 29-209) (ligand) | – | potency (EC50) of ERK phosphorylation in HEK293/human KLB cells with 0.1, 1.0 and 1.5% HSA: 4.0, 5.8 and 8.6 nM (5.2 nM without HSA); no HSA-dependent reduction of potency [2]: 8.6 nM; potency (EC50) of ERK phosphorylation in HEK293 cells transfected with human KLB, 0% HSA [3]: 5.2 nM
19 | FGF21 analog 23 (-1A, 121Q, 168L, 180C; C20 fatty diacid on 180C) (from UniProt Q9NSA1 29-209) (ligand) | – | potency (EC50) of ERK phosphorylation in HEK293/human KLB cells with 0.1 and 1.5% HSA: 47 and 173 nM (3.8 nM without HSA) [2]: 173 nM; potency (EC50) of ERK phosphorylation in HEK293 cells transfected with human KLB, 0% HSA [3]: 3.8 nM
20 | FGF21 analog 8 (-1A, 121Q, 168L, 171C; cysteamine on 171C) (from UniProt Q9NSA1 29-209) (ligand) | 2.2 | –
